Entries after “also recorded” stand apart in the source; their conditions may differ. Like-named read-outs stand apart in the source and are kept apart here.
Columns and labels:
ACE [1] = assay: ACE expression in HMVEC-L by Western blotting; format: cell-based, human; conditions: exogenous MK protein 100 ng/ml plus heparin 20 μg/ml
From the text: Histology and immunohistochemistry. The removed kidneys and lungs were fixed in 10% buffered formalin, embedded in paraffin, and then cut into 4-10.1 μm sections. The sections were stained with H&E, PAS, and Masson's trichrome. Another tissue sample was embedded in OCT compound (Sakura Finetek) and frozen in liquid nitrogen for immunostaining. Sections were cut to a thickness of 3 μm with a cryostat and fixed in acetone. High-power fields were used to examine the sections for evidence of focal sclerosis (J. Hypertens. 13:1785-1790, J. Lab. Clin. Med. 115:165-173). Glomerular sclerosis was assessed by semiquantitative score (grades 0 to +4) using the method of Raij et al. (Kidney Int. 26:137-143): grade 0, no sclerosis of glomeruli; grade 1, sclerosis of up to 25% of glomerulus; grade 2, sclerosis of 25%-50% of glomerulus; grade 3, sclerosis of 50%-75% of glomerulus; grade 4, sclerosis of 75%-100% of glomerulus. At least 50 glomeruli were evaluated under ×400 magnification and results averaged for each kidney (Mdk^+/+: 2 weeks, n=5; 4 weeks, n=4; 8 weeks, n=4; Mdk^−/−: 2 weeks, n=4; 4 weeks, n=3; 8 weeks, n=3). Immunostaining for ACE and MK was performed on buffered formalin-fixed tissues. Sections were deparaffinized, rehydrated, incubated in 3% hydrogen peroxide in methanol to block endogenous peroxidase, and washed in 10% normal goat serum (Dako) in PBS to block nonspecific binding. Subsequently, sections were incubated with mouse anti-ACE monoclonal antibody (dilution, 1:400; Chemicon International, Millipore) or anti-MK monoclonal antibody (dilution, 1:100) overnight at 4° C. as described previously (22), followed by a conjugate of polyclonal goat anti-mouse IgG antibody and HRP-labeled polymer (Histofine Simple Stain; Nichirei) for 1 hour at room temperature as a secondary antibody. The staining was visualized with 3-3′ diaminobenzidine (Nichirei) to produce a brown color. The sections were covered with 90% glycerol containing p-phenylenediamine and were examined by electron microscopy (H-7100; Hitachi). For double immunofluorescence staining of MK and thrombomodulin as a marker of the vascular endothelium, the cryosections of lungs were first incubated with chicken anti-human MK (dilution, 1:200) and then with rabbit anti-rat thrombomodulin (dilution, 1:1,000) (J. Immunol. 150:5633-5646), followed by incubation with FITC-labeled rabbit anti-chicken IgG (dilution, 1:160) and rhodamine-labeled goat anti-rabbit IgG (dilution, 1:320) as secondary antibodies. […] The lung and kidney section from each mouse was viewed under ×400 magnification, and then macrophages or neutrophils were counted from 10 fields and averaged. […]

HMVEC-L = assay: Ang II concentration in HMVEC-L (conversion from Ang I to Ang II); format: cell-based, human; conditions: HMVEC-L treated 36 hours with MK 100 ng/ml plus heparin 20 μg/ml or heparin alone, then Ang I added
Method: Ang II concentration in HMVEC-L. After reaching confluence, HMVEC-L were washed with PBS and cultured for 24 hours in essential basal medium containing 0.5% FBS. These cells were exposed to 100 ng/ml rh-MK plus 20 μg/ml heparin or 20 μg/ml heparin alone in essential basal medium containing 0.5% FBS for 36 hours. After stimulation, HMVEC-L were washed with PBS and exposed to 500 pM Ang I (Sigma-Aldrich) for 10 and 25 minutes. Supernatants were collected into chilled tubes, and then the Ang II concentration was measured as previously described (Hypertension. 39:129-134).

[2] = compared with mouse MK produced in L cells; cited from earlier work
[3] = tested on: cerebral ischemia reperfusion insult model; conditions: cited from earlier work
[4] = tested on: retinal nerve degeneration model; conditions: prior injection of midkine; cited from earlier work
[5] = tested on: Mdk-/- mice after 5/6 nephrectomy; assay: rh-MK and -PTN treatment model (osmotic pump), blood pressure by tail-cuff; format: in vivo; conditions: 1.6 mg/ml, 100 μl by osmotic pump over 14 days
Method: (§1) rh-MK and -PTN treatment model. In the pump study, MK protein in saline (1.6 mg/ml) (n=5), PTN in saline (1.6 mg/ml; n=5), or saline alone (n=5) was infused using an osmotic pump (ALZA Corp.) into Mdk^−/− mice after 5/6 nephrectomy. The pumps continuously infused a total of 100 μl over 14 days. The pumps were implanted under the dorsal skin the next day after 5/6 nephrectomy. Blood pressure was measured by the indirect tail-cuff technique at 0 and 2 weeks after 5/6 nephrectomy. Mice were sacrificed at 2 weeks after 5/6 nephrectomy, and blood and tissue samples were collected.
Blood pressure monitoring. Blood pressure was measured in restrained, conscious mice by the indirect tail-cuff technique under unstressed conditions (BP-98A; Softron) at 0, 2, 4, 6, and 8 weeks after 5/6 nephrectomy (J. Lab. Clin. Med. 78:957-962). Before measurement, the mice were warmed with a heating pad for 5 minutes. A total of 7-10 readings were taken for each mouse, at 1- to 2-minute intervals.

[6] = tested on: acute myocardial infarction model; conditions: administration of midkine; cited from earlier work
ACE [7] = assay: rh-MK and -PTN treatment model, ACE expression in the lung by Western blotting; format: in vivo; conditions: Mdk-/- mice after 5/6 nephrectomy, 1.6 mg/ml, 100 μl by osmotic pump over 14 days
Method: as §1
Western blot analysis. Mouse kidney, lung, brain, heart, and liver tissues were snap-frozen in liquid nitrogen for protein isolation. Western blot analysis was performed as described previously (Br. J. Cancer. 75:354-359). The blots were subsequently incubated with goat anti-human MK antibody (dilution, 1:1,000), monoclonal anti-β-actin antibody (dilution, 1:1,000; Sigma-Aldrich), mouse anti-ACE monoclonal antibody (dilution, 1:1,000; Chemicon International, Millipore), or rabbit anti-phospho-PKC antibody (dilution, 1:1,000; Cell Signaling Technology), followed by incubation with peroxidase-conjugated goat IgG, mouse IgG, or rabbit IgG (dilution, 1:5,000; Jackson Immunoresearch Laboratories Inc.). […] The density of each band was measured using the public domain NIH Image program (http://rsb.info.nih.gov/nih-image/).

PKC = assay: Phospho-PKC expression in HMVEC-L by Western blotting; format: cell-based, human; conditions: exogenous MK 100 ng/ml plus heparin 20 μg/ml
From the text: Histology and immunohistochemistry. The removed kidneys and lungs were fixed in 10% buffered formalin, embedded in paraffin, and then cut into 4-10.1 μm sections. The sections were stained with H&E, PAS, and Masson's trichrome. Another tissue sample was embedded in OCT compound (Sakura Finetek) and frozen in liquid nitrogen for immunostaining. Sections were cut to a thickness of 3 μm with a cryostat and fixed in acetone. High-power fields were used to examine the sections for evidence of focal sclerosis (J. Hypertens. 13:1785-1790, J. Lab. Clin. Med. 115:165-173). Glomerular sclerosis was assessed by semiquantitative score (grades 0 to +4) using the method of Raij et al. (Kidney Int. 26:137-143): grade 0, no sclerosis of glomeruli; grade 1, sclerosis of up to 25% of glomerulus; grade 2, sclerosis of 25%-50% of glomerulus; grade 3, sclerosis of 50%-75% of glomerulus; grade 4, sclerosis of 75%-100% of glomerulus. At least 50 glomeruli were evaluated under ×400 magnification and results averaged for each kidney (Mdk^+/+: 2 weeks, n=5; 4 weeks, n=4; 8 weeks, n=4; Mdk^−/−: 2 weeks, n=4; 4 weeks, n=3; 8 weeks, n=3). Immunostaining for ACE and MK was performed on buffered formalin-fixed tissues. […] The lung and kidney section from each mouse was viewed under ×400 magnification, and then macrophages or neutrophils were counted from 10 fields and averaged. […]

B1: MK: recombinant human midkine produced in Pichia pastoris; 13 kDa heparin-binding protein (protein, UniProt P21741 21-143, looked up)
Midkine: VAKKKDKVKKGGPGSECAEWAWGPCTPSSKDCGVGFREGTCGAQTQRIRCRVPCNWKKEFGADCKYKFENWGACDGGTGTKVRQGTLKKARYNAQCQETIRVTKPCTPKTKAKAKAKKGKGKD
For B1, the “ACE expression in HMVEC-L” value (ACE [1]) is given as “significantly enhanced; also recorded: induced”, the “Conversion of Ang I to Ang II” value (HMVEC-L) is given as “converted to Ang II in a time-dependent manner” and the Neurotrophic activity [2] is given as “comparable”. For the same molecule, the “Loss of hippocampal neuronal cells” value ([3]; post-insult therapeutic administration) was “ineffective”, the “Loss of hippocampal neuronal cells” value ([3]; prior ventricular administration of midkine) was “able to remedy” and the Neuronal cell loss [4] was “reduced”. For the same molecule, the “Hypertension (SBP)” value [5] was “restore hypertension; also recorded: restored”, the “Apoptotic loss of myocardial cells” value [6] was “reduction” and the “ACE expression in the lung” value (ACE [7]) was “restored”. For the same molecule, the “Phosphorylation levels of PKC” value (PKC) was “increased”.

Source: patent publication US20110059102A1, “Therapeutic Method Targeting Midkine” (NATIONAL UNIVERSITY CORPORATION NAGOYA UNIVERSITY, priority 2009, published 2011)
